Test results as given in publication PMC12624060, “Structures of human organellar SPFH protein complexes” (Nature Communications, 2025).

Key:
untagged PHB2 = target: T1, untagged PHB2 (human, UniProt Q99623 1-299); assay: cryo-EM structure; PHB1/2 complex after one-step StrepTactin purification, in 20 mM HEPES/KOH pH 7.4, 50 mM K-phosphate, 150 mM KCl, 5 mM magnesium acetate, 5 mM ATP, DDM/CHS; closed (2.4 Å) and open (3.1 Å) conformations, C11 symmetry; settings: both partners purified
T1 construct: PHB2 (prohibitin 2), human; 11 copies in the 22-subunit PHB1/2 complex; source: complex purified on StrepTactin; copies: 11

[1] = target: the molecule itself; assay: cryo-EM structure; Erlin1/2 complex after tandem affinity purification and SEC, in 50 mM HEPES/KOH pH 7.4, 150 mM NaCl, 0.02% DDM, 0.004% CHS; single-particle map at 3.0 Å, no symmetry applied in the last refinement

T1 sequence (Q99623 whole entry): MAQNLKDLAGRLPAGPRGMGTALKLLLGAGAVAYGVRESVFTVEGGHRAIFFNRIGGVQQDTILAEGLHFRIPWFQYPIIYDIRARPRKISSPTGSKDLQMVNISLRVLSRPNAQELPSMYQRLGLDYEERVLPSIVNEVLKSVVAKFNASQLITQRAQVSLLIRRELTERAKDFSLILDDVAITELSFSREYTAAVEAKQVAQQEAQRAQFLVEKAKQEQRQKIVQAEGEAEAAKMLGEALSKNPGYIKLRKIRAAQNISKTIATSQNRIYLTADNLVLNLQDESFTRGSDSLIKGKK

| Binder | stoichiometry N (untagged PHB2) | binding result [1] |
| --- | --- | --- |
| N-terminally Strep-tagged PHB1 (stable Expi293F line) (natural protein, human, PHB1 (prohibitin 1), human; cDNA in pHAGE; 11 copies in the 22-subunit PHB1/2 complex; also called prohibitin; source: solubilised membranes (DDM/CHS) and complex purified on StrepTactin; not shown: Strep, N-terminal, kept; copies: 11) MAAKVFESIGKFGLALAVAGGVVNSALYNVDAGHRAVIFDRFRGVQDIVVGEGTHFLIPWVQKPIIFDCRSRPRNVPVITGSKDLQNVNITLRILFRPVASQLPRIFTSIGEDYDERVLPSITTEILKSVVARFDAGELITQRELVSRQVSDDLTERAATFGLILDDVSLTHLTFGKEFTEAVEAKQVAQQEAERARFVVEKAEQQKKAAIISAEGDSKAAELIANSLATAGDGLIELRKLEAAEDIAYQLSRSRNITYLPAGQSVLLQLPQ | 11 heterodimers in the complex |  |
| N-terminally Strep-tagged Erlin1 (natural protein, human, N-linked glycan on N108, Erlin1, human; cDNA in pcDNA5; 13 copies in the 26-subunit Erlin1/2 complex as modelled; source: Expi293F, co-transfected with Erlin2-Flag; complex purified (StrepTactin, anti-FLAG M2, Superose 6) in DDM/CHS; not shown: Strep, N-terminal, kept; copies: 13) MTQARVLVAAVVGLVAVLLYASIHKIEEGHLAVYYRGGALLTSPSGPGYHIMLPFITTFRSVQTTLQTDEVKNVPCGTSGGVMIYIDRIEVVNMLAPYAVFDIVRNYTADYDKTLIFNKIHHELNQFCSAHTLQEVYIELFDQIDENLKQALQKDLNLMAPGLTIQAVRVTKPKIPEAIRRNFELMEAEKTKLLIAAQKQKVVEKEAETERKKAVIEAEKIAQVAKIRFQQKVMEKETEKRISEIEDAAFLAREKAKADAEYYAAHKYATSNKHKLTPEYLELKKYQAIASNSKIYFGSNIPNMFVDSSCALKYSDIRTGRESSLPSKEALEPSGENVIQNKESTG |  | binds |
| C-terminally Flag-tagged Erlin2 (natural protein, human, N-linked glycan on N106, Erlin2, human; cDNA in pcDNA5; 13 copies in the 26-subunit Erlin1/2 complex as modelled; also called Erlin2-Flag; source: Expi293F, co-transfected with Strep-Erlin1; complex purified (StrepTactin, anti-FLAG M2, Superose 6) in DDM/CHS; not shown: Flag, C-terminal, kept; copies: 13) MAQLGAVVAVASSFFCASLFSAVHKIEEGHIGVYYRGGALLTSTSGPGFHLMLPFITSYKSVQTTLQTDEVKNVPCGTSGGVMIYFDRIEVVNFLVPNAVYDIVKNYTADYDKALIFNKIHHELNQFCSVHTLQEVYIELFDQIDENLKLALQQDLTSMAPGLVIQAVRVTKPNIPEAIRRNYELMESEKTKLLIAAQKQKVVEKEAETERKKALIEAEKVAQVAEITYGQKVMEKETEKKISEIEDAAFLAREKAKADAECYTAMKIAEANKLKLTPEYLQLMKYKAIASNSKIYFGKDIPNMFMDSAGSVSKQFEGLADKLSFGLEDEPLETATKEN |  | binds |
